Test system: MS2 coat protein
Assay: apparent KD of MS2 coat protein; designed switch direction (-1 OFF switch, 1 ON switch): -1; higher = weaker reporter binding
In short: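 For each design, the apparent KD is the median over clusters of curves fitted to normalised cluster fluorescence. Clusters held RNA switches with common flanks, transcribed on Illumina chips by stalled E. coli RNA polymerase. These were titrated with SNAP-549-labelled MS2 coat protein, doubling from 0.7 or 1.5 nM to 3 µM, without input, with 200 uM small-molecule ligand, or with an oligonucleotide input.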

[1] = Eterna round: R95, input ligand: FMN 200 uM
[2] = Eterna round: R95, input ligand: microRNA oligo, concentration not stated
[3] = Eterna round: R95, input ligand: none
[4] = input ligand: microRNA oligo, concentration not stated

| Sequence | apparent KD of MS2 coat protein [1] [nM] | apparent KD of MS2 coat protein [2] [nM] | apparent KD of MS2 coat protein [3] [nM] | apparent KD of MS2 coat protein (input ligand: FMN 200 uM) [nM] | apparent KD of MS2 coat protein (input ligand: none) [nM] | apparent KD of MS2 coat protein [4] [nM] |
| --- | --- | --- | --- | --- | --- | --- |
| UGGGUUCUCCAUAGAAGUAACAUGAGGAUCACCCAUGUAGGGCAAGUUUUUUGUUCGUCAUAGGCUGUGGAUUUGGA [JR_SV3TOV1_Sub020] (puzzle: Sensor v3, turn-off variant 1) | 90.8 | 170 | 133 | – | – | – |
| UAAAGUAUAUAGGAUAUCUAGCUGGUAACAGCUAGAGAAGGAUGUACAUGAGGAUCACCCAUGUAAAUCAUGAA [Ex6/16-A2] (Eterna round: R97, puzzle: Exclusion 6) | – | – | – | 20.8 | 17.3 | – |
| GUCGGACAUGAGGAUCACCCAUGUGAGGAUAUCCUUUAGAGCUAUUAGUAGAUGCUUAGGAGAAGGCACUAGGG [Eternabot (L2) Solution 17] (Eterna round: R97, puzzle: Exclusion 1) | – | – | – | 93.9 | 314 | – |
| GCGGACAAGAUAUAAAUAUCAGAGACAUGAGGAUCACCCAUGUAGGAUAUCGAUUCGAAACGAAUCGAGAAGGGCAUAGUCCGC [JL denovo 1] (Eterna round: R96, puzzle: Exclusion NG 3) | – | – | – | 18.8 | 18.7 | 13.8 |
| GCGCGAAGGUAGGAUAUCCGGCGAUCUUCCGUCGGAGAAGGACCCACAUGAGGAUCACCCAUGUGGUGAUCCUG [eternacac ex6r4 sub13] (Eterna round: R97, puzzle: Exclusion 6) | – | – | – | 12 | 23.9 | – |
| ACUAGCGAAAUGCUCGUCUUAUUUUUGUAGAGGUUCUAAACAUGAGGAUCACCCAUGUAGUGGUUUUUGUGGAGGUA [JR_SV3TOV2_Sub071] (puzzle: Sensor v3, turn-off variant 2) | 222 | – | 349 | – | – | – |
| UUUAAUUUUUUUUUUUUACAAGCUUUUUGCUCGUCUUAUACAUGAGGAUCACCCAUGUAAAUGGAGGAUAAAUUAUC [JMF 29] (puzzle: Sensor v3, turn-off variant 2) | 22.4 | 41.1 | 19.7 | – | – | – |
| UGGUAGUUAGGAUAUACAUGAGGAUCACCCAUGUACGGGUGCAGAAAAGAAAGCCUUCGUAGAAGGAACACCUG [Aaredima] (Eterna round: R97, puzzle: Exclusion 3) | – | – | – | 69.1 | 62.6 | – |
| CUAAUAGCAGCAGGAUAUCUCACAUGAGGAUCACCCAUGUGGGACCGCCACCUCGUGUGUAAAGAAGAGAAGGGCUCGCACUCC [Eternabot solution 6] (Eterna round: R96, puzzle: Exclusion NG 2) | – | – | – | 37.6 | 26.1 | 12.8 |
| AUCAUAUAACAAGCUUUUUACAUGAGGAUCACCCAUGUGGUUUUUAGUCUUAUCCCGGGCCCGAUAUCGGGCCCGGG [-33.4, -54.7, A 22%] (Eterna round: R97, puzzle: Sensor, turn-off variant 1) | – | – | – | 22.8 | 24.2 | – |
| ACAACAAGCUUUUUGUUCGUAGAACAUGAUGCUCUAGUCACAUGAGGAUCACCCAUGUCAGCCAGUUAGAUAGGUGA [JR_SV3TOV2_Sub064] (puzzle: Sensor v3, turn-off variant 2) | 75.2 | 133 | 81.1 | – | – | – |
| ACAUGUUAUCCAUGAUAUCACAUGAGGAUCACCCAUGUUAUGGCGAUUUUGAGGUGUAAGUUUUGUGCUCGUCUUAU [JR_STOV1_Sub057] (Eterna round: R97, puzzle: Sensor, turn-off variant 1) | – | – | – | 80.1 | 89.4 | – |
| ACGUGAGCUGAGGAUAUGCCACUAGCCCGCCUGGCAGAAGGCAGUACAUGAGGAUCACCCAUGUGCGUUGGGUG [Leintice] (Eterna round: R97, puzzle: Exclusion 6) | – | – | – | 334 | 335 | – |
| AAGAGGAUUAUAGGAUAUGAAGCUAAAACGGCGUUAGAAGGGUAUACAGAGUUACAUGAGGAUCACCCAUGUUGUGAUUUCUAA [AK ExNG1-V2-4.3] (Eterna round: R96, puzzle: Exclusion NG 1) | – | – | – | 52.6 | 62.5 | 36.9 |
| UAAACAUGGAUAUAACAGUACAUGAGGAUCACCCAUGUUAAUACGAUAGAUUAUAACAAGCUUUUUUGUCGUCUUAA [Cooked Book] (Eterna round: R97, puzzle: Sensor, turn-off variant 1) | – | – | – | 116 | 85.4 | – |
